# Experimental data as given in PMC4872106, “The evolutionary pathway from a biologically inactive polypeptide sequence to a folded, active structural mimic of DNA” (Nucleic Acids Research, 2016).
# T1: M.EcoKI (the M2S1 methyltransferase core of the EcoKI Type I RM enzyme) (E. coli, UniProt P08957 1-529; P05719 1-464)
# T1 sequence 1: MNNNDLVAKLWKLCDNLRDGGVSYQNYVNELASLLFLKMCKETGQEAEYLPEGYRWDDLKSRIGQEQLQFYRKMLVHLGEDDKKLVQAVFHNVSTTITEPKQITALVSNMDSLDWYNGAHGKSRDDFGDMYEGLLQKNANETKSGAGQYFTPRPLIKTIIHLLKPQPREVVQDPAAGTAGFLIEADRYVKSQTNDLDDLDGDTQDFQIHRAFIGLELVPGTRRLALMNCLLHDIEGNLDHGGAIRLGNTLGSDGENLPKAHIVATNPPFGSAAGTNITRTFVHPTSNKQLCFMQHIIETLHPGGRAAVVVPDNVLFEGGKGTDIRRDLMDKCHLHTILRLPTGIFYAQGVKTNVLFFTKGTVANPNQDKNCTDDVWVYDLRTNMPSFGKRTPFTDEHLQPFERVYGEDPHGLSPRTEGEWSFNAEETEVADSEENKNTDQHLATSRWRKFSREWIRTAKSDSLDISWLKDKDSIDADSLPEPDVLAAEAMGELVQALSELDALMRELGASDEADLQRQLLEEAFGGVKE
# T1 sequence 2: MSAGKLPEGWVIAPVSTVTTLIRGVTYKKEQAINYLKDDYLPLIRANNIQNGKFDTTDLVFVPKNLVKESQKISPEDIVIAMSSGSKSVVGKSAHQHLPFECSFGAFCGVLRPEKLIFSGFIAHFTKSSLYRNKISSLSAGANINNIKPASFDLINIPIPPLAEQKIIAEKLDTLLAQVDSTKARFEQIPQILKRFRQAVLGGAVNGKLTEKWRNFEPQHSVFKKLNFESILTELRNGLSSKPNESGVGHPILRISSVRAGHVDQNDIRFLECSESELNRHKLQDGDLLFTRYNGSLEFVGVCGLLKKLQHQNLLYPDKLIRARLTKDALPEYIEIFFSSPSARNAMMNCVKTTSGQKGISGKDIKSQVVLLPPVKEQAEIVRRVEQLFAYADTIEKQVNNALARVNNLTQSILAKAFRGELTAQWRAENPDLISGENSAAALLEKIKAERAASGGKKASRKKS
# B1: Ocr (overcome classical restriction) from bacteriophage T7, wild type (natural protein, UniProt P03775 1-117, looked up)
# chain: MAMSNMTYNNVFDHAYEMLKENIRYDDIRDTDDLHDAIHMAADNAVPHYYADIFSVMASEGIDLEFEDSGLMPDTKDVIRILQARIYEQLTIDLWEDAEDLLNEYLEEVEEYEEDEE
# notes: Ocr, product of bacteriophage T7 gene 0.3; homodimer of a polypeptide of 116 amino acids (34 acidic and 6 basic residues per monomer); also called wild-type Ocr; gene 0.3 protein
# What was measured:
# [1] = biological target: T1, M.EcoKI (the M2S1 methyltransferase …); assay: cell-based or functional assay
# [2] = biological target: EcoKI Type I restriction/modification enzyme (R2M2S1) (E. coli, UniProt P08956 1-1170; P08957 1-529; P05719 1-464); assay: cell-based or functional assay
# EcoKI Type I restriction/modification enzyme (R2M2S1), sequence (P08956 whole entry, one chain of several): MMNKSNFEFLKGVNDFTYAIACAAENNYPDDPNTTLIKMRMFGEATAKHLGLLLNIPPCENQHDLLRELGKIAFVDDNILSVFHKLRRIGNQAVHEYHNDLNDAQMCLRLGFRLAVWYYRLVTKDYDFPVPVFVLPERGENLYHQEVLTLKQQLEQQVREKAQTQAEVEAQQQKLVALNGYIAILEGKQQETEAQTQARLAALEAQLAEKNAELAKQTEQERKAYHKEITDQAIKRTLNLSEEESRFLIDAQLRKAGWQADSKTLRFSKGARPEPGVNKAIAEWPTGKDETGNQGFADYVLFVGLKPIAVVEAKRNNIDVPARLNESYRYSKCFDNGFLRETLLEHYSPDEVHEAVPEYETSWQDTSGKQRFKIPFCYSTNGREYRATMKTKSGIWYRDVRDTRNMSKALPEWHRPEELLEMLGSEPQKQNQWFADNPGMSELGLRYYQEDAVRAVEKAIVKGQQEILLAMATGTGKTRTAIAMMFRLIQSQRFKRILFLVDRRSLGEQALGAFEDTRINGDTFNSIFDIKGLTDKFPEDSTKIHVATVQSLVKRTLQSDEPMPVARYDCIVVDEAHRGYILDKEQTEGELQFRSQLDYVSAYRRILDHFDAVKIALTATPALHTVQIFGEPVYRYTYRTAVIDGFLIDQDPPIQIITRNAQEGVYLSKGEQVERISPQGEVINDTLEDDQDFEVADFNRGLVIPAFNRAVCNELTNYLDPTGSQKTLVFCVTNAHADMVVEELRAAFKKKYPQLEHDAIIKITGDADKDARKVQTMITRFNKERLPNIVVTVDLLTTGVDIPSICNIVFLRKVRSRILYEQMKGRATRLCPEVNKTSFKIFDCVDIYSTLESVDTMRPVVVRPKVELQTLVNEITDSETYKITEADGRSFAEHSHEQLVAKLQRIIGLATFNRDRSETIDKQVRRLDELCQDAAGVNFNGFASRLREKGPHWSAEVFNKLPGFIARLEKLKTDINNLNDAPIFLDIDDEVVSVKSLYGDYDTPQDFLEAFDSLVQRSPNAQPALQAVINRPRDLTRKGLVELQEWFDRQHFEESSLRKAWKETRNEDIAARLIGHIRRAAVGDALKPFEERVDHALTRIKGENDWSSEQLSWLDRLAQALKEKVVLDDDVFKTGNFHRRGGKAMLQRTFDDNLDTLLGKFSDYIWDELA
# [3] = biological target: T1, M.EcoKI (the M2S1 methyltransferase …); assay: ITC; as described in ref. 15 but in 20 mM HEPES buffer, pH 7.0; heat of interaction plotted against the molar ratio of Ocr dimer to M.EcoKI; conditions: both partners purified
binder,measurement,setting,value
B1,in vivo antimodification: efficiency of plating on E. coli NM1041 (r+m+) relative to NM1057 (r-m+) of phage lambda v.o recovered from NM1057 expressing Ocr (vector alone 1),[1],0.00014 eop
same,"in vivo antirestriction: efficiency of plating of phage lambda v.o on E. coli NM1049(DE3) (r+m+, EcoKI) relative to NM1261(DE3) (r-m-), strains expressing Ocr (vector alone 5x10^-5)",[2],4 eop
same,stoichiometry N,[3],1 Ocr dimer per M.EcoKI
